# Laboratory results reported in publication PMC8423358 (Immunity, 2021).
# B1: Full-length CARD8 (T60 isoform), molecule A of the CARD8-DPP9 ternary complex (natural protein, human, UniProt Q9Y2G2-5 1-537, looked up)
# chain: MEKKECPEKSSSSEEELPRRDSGSSRNIDASKLIRLQGSRKLLVDNSIRELQYTKTGIFFQAEACVTNDTVYRELPCVSETLCDISHFFQEDDETEAEPLLFRAVPECQLSGGDIPSVSEEQESSEGQDSGDICSEENQIVSSYASKVCFEIEEDYKNRQFLGPEGNVDVELIDKSTNRYSVWFPTAGWYLWSATGLGFLVRDEVTVTIAFGSWSQHLALDLQHHEQWLVGGPLFDVTAEPEEAVAEIHLPHFISLQAGEVDVSWFLVAHFKNEGMVLEHPARVEPFYAVLESPSFSLMGILLRIASGTRLSIPITSNTLIYYHPHPEDIKFHLYLVPSDALLTKAIDDEEDRFHGVRLQTSPPMEPLNFGSSYIVSNSANLKVMPKELKLSYRSPGEIQHFSKFYAGQMKEPIQLEITEKRHGTLVWDTEVKPVDLQLVAASAPPPFSGAAFVKENHRQLQARMGDLKGVLDDLQDNEVLTENEKELVEQEKTRQSKNEALLSMVEKKGDLALDVLFRSISERDPYLVSYLRQQNL
# B2: CARD8-S297A (autoproteolytic-deficient), full length, for cryo-EM (natural protein, human, UniProt Q9Y2G2-5 1-537, looked up)
# chain: MEKKECPEKSSSSEEELPRRDSGSSRNIDASKLIRLQGSRKLLVDNSIRELQYTKTGIFFQAEACVTNDTVYRELPCVSETLCDISHFFQEDDETEAEPLLFRAVPECQLSGGDIPSVSEEQESSEGQDSGDICSEENQIVSSYASKVCFEIEEDYKNRQFLGPEGNVDVELIDKSTNRYSVWFPTAGWYLWSATGLGFLVRDEVTVTIAFGSWSQHLALDLQHHEQWLVGGPLFDVTAEPEEAVAEIHLPHFISLQAGEVDVSWFLVAHFKNEGMVLEHPARVEPFYAVLESPSFALMGILLRIASGTRLSIPITSNTLIYYHPHPEDIKFHLYLVPSDALLTKAIDDEEDRFHGVRLQTSPPMEPLNFGSSYIVSNSANLKVMPKELKLSYRSPGEIQHFSKFYAGQMKEPIQLEITEKRHGTLVWDTEVKPVDLQLVAASAPPPFSGAAFVKENHRQLQARMGDLKGVLDDLQDNEVLTENEKELVEQEKTRQSKNEALLSMVEKKGDLALDVLFRSISERDPYLVSYLRQQNL
# Molecular target: DPP9, short isoform (DPP9S), co-expressed with CARD8 for cryo-EM (UniProt Q86TI2-1 1-863)
# Sequence (Q86TI2 whole entry, canonical isoform): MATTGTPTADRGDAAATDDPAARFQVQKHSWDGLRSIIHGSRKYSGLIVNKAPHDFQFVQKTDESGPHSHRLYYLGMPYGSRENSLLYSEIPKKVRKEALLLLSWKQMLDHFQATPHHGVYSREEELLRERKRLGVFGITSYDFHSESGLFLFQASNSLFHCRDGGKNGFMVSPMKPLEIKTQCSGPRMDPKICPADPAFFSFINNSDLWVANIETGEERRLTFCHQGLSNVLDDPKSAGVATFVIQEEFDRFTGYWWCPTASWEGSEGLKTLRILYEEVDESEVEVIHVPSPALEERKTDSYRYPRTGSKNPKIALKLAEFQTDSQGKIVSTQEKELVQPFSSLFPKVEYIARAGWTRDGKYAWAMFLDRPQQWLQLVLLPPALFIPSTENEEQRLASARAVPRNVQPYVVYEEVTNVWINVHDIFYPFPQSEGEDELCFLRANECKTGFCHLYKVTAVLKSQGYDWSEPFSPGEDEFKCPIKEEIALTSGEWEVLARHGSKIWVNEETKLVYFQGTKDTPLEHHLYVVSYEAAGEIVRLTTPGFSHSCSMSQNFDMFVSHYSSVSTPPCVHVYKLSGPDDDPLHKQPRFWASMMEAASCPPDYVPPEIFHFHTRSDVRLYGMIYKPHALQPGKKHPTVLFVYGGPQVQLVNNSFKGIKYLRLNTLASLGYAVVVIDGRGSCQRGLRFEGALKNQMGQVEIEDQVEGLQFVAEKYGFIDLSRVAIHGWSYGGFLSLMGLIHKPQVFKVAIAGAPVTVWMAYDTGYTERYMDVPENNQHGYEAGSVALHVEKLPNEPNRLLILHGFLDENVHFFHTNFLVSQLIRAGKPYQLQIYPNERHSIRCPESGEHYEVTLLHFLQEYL
# Experiment: cryo-EM structure
row,Binder,binding result
1,B1,binds
2,B2,binds
